The nanobody polyreactivity screen of Harvey et al. (2022)

Assay: yeast display, Sf9 membrane polyspecificity reagent, FACS + sequencing; frameworks hold sequencing errors
Outline: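 Using colony PCR, genes from sorted yeast display clones were amplified, then sequenced on MiSeq at 2 × 250 and filtered by CDR length. The clones had been stained with 10% biotinylated, detergent-solubilized Sf9 membrane reagent for 1 hour at 4 °C and sorted by FACS into low and high (top ~1%) gates on anti-HA and streptavidin fluorescence. Polyreactivity labels come from the gate of origin.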

Row | Sequence | polyreactivity (PSR sort gate)
1 | QVQLVESGGGLVQAGGSLRLSCAASGSIFYGNAMGWYRQAPGKERELVAAISQSGSRTYYADSVKGRFTISRDNAKNTVYLQMNSLKPEDTAVYYCAARARIYNYWGQGTQVTVSS | high polyreactivity
2 | QVQLVESGGGLVQAGGSLRLSCAASGFTFTRNAMGWYRQAPGKERFVAAITGSGASTYYADSVKGRFTISRDNAKNTVYLQMNSLKPEDTAVYYCNAEYYAGRYRYDYWGQGTQVTVSS | high polyreactivity
3 | HVQLQESGGGLVQAGGSLRLSCAASGSIFQATYMGWYRQAPGKEREFVASITNGSITNYADSVKGRFTIGRDNEKDTLYLQMNSLKPEDSAVYYCAVDRQYIPAFHYWGQGTQVTVSS | low polyreactivity
4 | QVQLVESGGGLVQAGGSLRLSCAASGRIFIPYAMGWYRQAPGKERELVAVISWNGGSTYYADSVKGRFTISRDNAKNTVYLQMNSLKPEDTAVYYCAADTYPYAKMDYWGQGTQVTVSS | low polyreactivity
5 | QVQLVESGGGLVQAGGSLRLSCAASGIIFYLYAMGWYRQAPGKERELVAPITTGGRTNYADSVKGRFTISRDNAKNTVYLQMNSLKPEDTAVYYCAATHRGQGGYYWGQGTQVTVSS | low polyreactivity
6 | QVQLVESGGGLVQAGGSLRLSCAASGFIFFPYVMGWYRQAPGKEREFVAAITGDGGSTYYADSVKGRFTISRDNAKNTVYLQMNSLKPEDTAVYYCAAEFGLWYWDWAASEDYWGQGTQVTVSS | high polyreactivity
7 | QDQLEESGGGLVQAGGSLRLSCSASGSIFRRNAMGWYRQAPGKERELVAGITRSTGDTYYADSVKGRFTISRDNAKNTVYLQMNSMKPEDTAVYYCAACGSYYRDDYWGQGTQVTVSS | low polyreactivity
8 | QVQLVESLGGLVQAGASLRLSCAASARTFVIYSMGSYREAPGKERELVAAITWNGETTYYADSVKGRFTISRDNAKNTVYLQMNSLKPEDTAVYYCAAETRSEYHYWGQGTQVTVSS | high polyreactivity
9 | QVQLVESGGGLVQAGGSLRLSCAASGRTFKYNAMGWYRQAPGKRKELVAAISSGGSTYYADSVKGRFTISRDNAKNTVYLQMNSLKPEDTAVYYCAVRNTKSYWFGYWGQGTQVTVSS | high polyreactivity
10 | QVQLVESGGGLVQAGGSLRLSCAASGSIFYKYMGWYRQAPGKERELVAAITWSGGSTYYADSVKGRFTISRDNAKNTVYLQMNSLKPEDTAVYYCAARDYTRYGYGYWGQGTQVTVSS | high polyreactivity
11 | QVQLVESGGGIVQAGGSLRLSCAASGLIFSVNAMGWYRQAPGKERELVASISVSGGSTYYADSVKGRFTISRDNAKNTVYLQMNSLKPEDTAVYYCNTVPLAGEYSTDLRYDYWGQGTQVTVSS | low polyreactivity
12 | QVQLVESGGGVVQAGGSLRLSCAGSGRTFGPYAMGWYRQAPGKERELVAAIRYIDDSTFYADSVKGRFTISRDKAKNTVYLQMNSLKPEDTAVYYCAAQRRVVGRHGLSLIRYDYWGQGTQVTVTS | low polyreactivity
13 | QVQIVESGGGLVQAGGSLRLSCAASGFIFQTNVMGWYRQAPGKERELVAAISSGDSTYYADSVKGRFTISRDNAKNTVYLQMNSLKPEDTAVYYCAADVLGTTTTVGGFNYWGQGTQVTVSS | low polyreactivity
14 | QVQLQESVGGLVQADGSLRLSCAASGTIFTQSYMGWYRQAPGKEREFVAGISNGTKTNYGDSVKGRFTISRDNAKNTVYLQMHRLKLEDTAVYYCAVKGFYVDVLAYWGQGTHVTVSS | high polyreactivity
15 | QVQLVESGGGLVQAGGSLRLSCAASGYIFSGYAMGWYRQAPGKERELVAAISSSGGRTYYADSVKGRFTISRDNAKNTVYLQMNSLKPEDTAVYYCATVPRKTPGNAELDYWGQGTQVTVSS | high polyreactivity
16 | QVQLEESGGGLVQAGGSLRLSCAASGSTFVEYAMGWYRQAPGKERELVAAITASGGSTYYADSVKGRFTISRDNAKNTVYLQMNSLKPEDTAVYYCAVTTRSRGFRDIDYWGQGTQVTVSS | low polyreactivity
17 | QVQLVESGGGLVQAGGSLRLSCAASGRIFTRNAMGWYRQAPGKERELVAAITSGGSTNYADSVKGRFTISRDNAKNTVYLQMNSLKPEDTAVYYCNAVYYPYRIWGRVRPSYGYWGQGTQVTVSS | high polyreactivity
18 | QVQLVESGGGLVQAGGSLRLSCADSGRTLSVYAMGWYRQAPGKESELVAAITWRGGSTYYADSVKGRFTISRDNAKNTVYLQMNSLKPEDTAVYYCAAEDYTYNGGGFEYWGQGTQVTVAS | low polyreactivity
19 | QVQLVESGGGLVQAGGSLRLSCAASGSIFTPNVMGWYRQAPGKERELVAAISQSGGSTFYADSVKGRFTISRDNAKNTVYLQMNSLKPEDTAVYYCAADDGYTYYYWGQGTQVTVSS | low polyreactivity
20 | QVQLVESGGGLVHAGGSLRLSCAASGRIFIANTMGWYRQATGKERELVAAITQRGDSTYYADSVKGRCTISRDNAKNTVDLQMNSLKPEDTAVYYCAARYYLSSYVRYNYWGQGTQVTVSS | high polyreactivity
21 | QVQLQESGGGLVQAGGSLRQSYAASGYIFPSLAKGWYRQAPGKEREFVAAIGRGSTNNYADSVKGRFTISRDNAKKTAYQQMNSLKPEDTAVYYCAAAASPLTRHLYWGQGTQVTVSS | low polyreactivity
22 | QVQLVESGGGLVQAGGSLRLSCAASGFIFGLYAMGWYRQAPGKERELVAAISRRGGSTYYADSVKGRFTISLDNAKNTVYLQMNSLKPEDTAVYYCATDHSYIDDWGQGTEVTVSS | high polyreactivity

Row | Sequence | polyreactivity (PSR sort gate)
23 | QVQLVESGGGLVQAGGSLRLSCAASGITFYVNAMGWYRQAPGKERELVAAINSGSTNYADSVKGRFTISRDNAKNTVYLQMNSLKPEDTAVYYCAVDVYWEFSPEYDYWGQGTQVTVSS | low polyreactivity
24 | QVQLVESGGGLVQAGGSLRLSCEASGRTFDTYAMGCYRQAPGKERELVAAITTSGGTTYYADSVKGRFTISRDNAKNTVYLQMNSLKPEDTAVYYCAADPWIEYTYGSKAYYYWGQGTQVTVSS | low polyreactivity
25 | QVQLVESGGGLVKAGGSLRLSCAASGNIFTSNAMGWYRQAPGKERELVAAITSGGSTYYADSVKGRFTISRDNAKNTVYLQMNSLKPEDTAVYYCATLPRPHLRPYYYWGQGTQVTVSS | high polyreactivity
26 | QVQLVESGGGLVQAGGSLRLSCAASGFTFQNNVMGWYRQAPGKERELVAAINSSGRTYYADSVKGRFTISRDNAKNTVYLQMNSLKPEDTAVFYCAASRRYRGVNRPGDYWGQGTQVTVSS | high polyreactivity
27 | QVQLVESGGGLVQAGGSLRLSCAASGRIFTSYAMGWYRQAPGKERELVAAISGSSASTYYADSVKGRFTISRDNAKNTVYLQMNSLKPEDTAVYYCAAYKYDYRVDTGYDYWGQGTQVTVSS | low polyreactivity
28 | QVHLVESGGGLVQAGGSLRLSCAASGRILGYYAMVWYRQAPGKERELVAAISRGGRTNYADSVKGRFTISRDNAKNTVYLQMNSLKPEDTAVYYCAKDVAGLFHVGALYYYWGQGTQVTVSS | low polyreactivity
29 | QVQLVESGGGLVQAGGSLRLSCAASGFIFYLYAMGWSRQAPGKERELVASINVSGASTRYADSVKGRFTISRDNAKNTVYLQMNSLKPEDTAVYYCAAPSRYDYWGQGTQVTVSS | low polyreactivity
30 | QVQLVESGGGLVQAGGSLRLSCAASGFTFSYYVMGWYRPAPGKDRELVAAIDWSGDSTYYPDSVKGRFTISRDNAKNTVYLQMISLKPEDTAVYYCAADQHAYYPYYYWGQGTQVTVSS | low polyreactivity
31 | QFQLVESGGGLVQAGGSLRLSCAASGITFVDNAMGWYRQAPGKERELVAAITNSGSTYADSVKGRFTISRDNAKNTVYVQMNSLKPEDTAVYYCAADYYILLTKSDRLFGSWGQGTQVTVSS | low polyreactivity
32 | QVQLVESGGGLVQAGGSLRLSCAASGSTFVGNVMGWYRQAPGKERELVATISRSGGRTYYADSVKGRFTISRDNAKNTVYLQMNSLKPVDTAVYYCAAGFVYTTASRWGGRTRYDYWGQGTQVTVSS | high polyreactivity
33 | QVQLVESGGGLVQAGGSLRLSCAASGFTFWRYTMGWYRQAPGKERELVAAINWSGGRTYYADSVKGRFTISRDNAKNTVYLQMNSLKPEDTAVYYCATGYSTSVGGSQGDSWGQGTQVTVSS | high polyreactivity
34 | QVQLVESGGGLVQAGGSLRLSCAASGYTFSHYAMGWYRQAPGKERELVAGITWSGGSTYYADSVKVRFTISRDNAKNTVYVQMNSLKPEDTSVYYCAAKYYWYYSYSGIPLFDYWGQGTQVTVSS | low polyreactivity
35 | QVQLVESGGGLVQAGGSLRLSCAASGLTFYINDMGWYRQAPGKERELVAAITRGGSTNYADSVKGRLTISRDNAKNTVYLQMNSLKPEDTAVYYCAAGARYGYGYWGHGTQVTVSS | high polyreactivity
36 | QVQLVESGGGLVQAGGSLRLICAASGLTFVPNAMGWYRQAPGKERELVAGITSAGSTYYADSVKGRFTISRDNAKNTVYLQMNSLKPEDTAVYYCAKQFYRGFRYGYWGQGTQVTVSS | high polyreactivity
37 | QDQLVETGLGLVQAGGSLRLSLAASGRTFSYAKAWYRQEPGKERELVAAITKRGGSTNFADSVKGRFTISRDNAKNTVYLQMNSLKPEDTAVYYCATDPYHGSYLTYGRMDYWGQGTQVTVSS | high polyreactivity
38 | QVQLEESGGGLVQAGGSLRLSCAASGSTFGYYTMGWYRQAPGKERELVAAISWSGGSTYYADSVKGRFTISRDNAKNTVYLQMNSLKPEDTAVYYCAALGYTYKYYSYYWGQGTQVTVSS | high polyreactivity
39 | QVQLVESGGGLVQAGGSLRLSCAASGRTFVFNAMGWYSPAPGKERDLVAGISGSGGSTYYADSVKGRFTISRDNAKNTVYLQMNSLKPEDTAVYYCATKFPRKELDQDSVSGLGYWGLGTQVTVSS | low polyreactivity
40 | QVQLVESGGGLVQAGGSLRLSCAASGFIFKQNARGWYRQAPGKERELVAAISWTGGSTYYADSVQGRFTISRDNAKNTVYLQMNSLKPEDTAVFYCAARKYKSTGDRRGTMDYWGQGTQVTVSS | high polyreactivity
41 | QVQLVESGGGLVQAGGSLRLSCAASGGTFSPYDMGWYRQAPGKERELVASITGSGGSTYYADSVKGRFTISRGNAKNTVYLQMNSLKPEDTAVYYCAAQGYWTYWPYLLRLYDYWGQGTQVTVSS | low polyreactivity
42 | QVQLVESGGGLVQAGGSLRLSCAASGRTFLGYAMGWYRQAPGKERELVAAITSGTRTYADSVKGRFTISRDNAKYTVYLQMNSLKPEDTAVYYCAALRWQYRLYSYSFRSGRFDYWGQGTQVTVSS | low polyreactivity
43 | QVQLVESGGGLVQAGGSLRLSCAASGFIFNIYGMGWYRQAPGKERELVAAISRGGSTYYADSVKGRFTISRDNAKNTGYLQMNSLTPEDTAVYYCAAVGYTLEYEYWGQGTQVTVSS | low polyreactivity
